The nature of series [1]: Ex vivo stability in normal mouse plasma (LC/MS/MS). It counts as in vitro ADME. From the text:
(§1) [drawing 10] • a) Prodrug-1 has been screened using normal mouse plasma, normal mouse liver homogenate and experimental human tumour model homogenate (HT1080 xenograft; known to express majority of MMPs) ex vivo. Prodrug cleavage and metabolism were detected using LC/MS/MS. • a. Prodrug-1 was stable in plasma and liver, supporting systemic stability of these therapeutics (FIG. 1). • b. […] Plasma, tissues and tumours were collected at regular intervals post-dosing. Levels of prodrug and VDA2 were assessed by LC/MS/MS. • a. […] (FIG. 2) • d. […] VDA2 levels were detected at high levels in tumour tissue following prodrug-1 administration (FIG. 3) • f.
(§2) [drawing 11] • d) Compound 1 was modified in order to change the MMP-targeting of the compound from being pan-MMP to MT-MMP selective (Prodrug-2) • a. Arginine was incorporated in place of the Glutamic acid at the P4 position • b. […] Prodrug-2 cleavage and metabolism were detected using LC/MS/MS. • a. […] Prodrug-2 is not cleaved by recombinant MMP-9, in contrast to prodrug-1 • d. […] Plasma, tissues and tumours were collected at regular intervals post-dosing. Levels of prodrug-2 and VDA2 were assessed by LC/MS/MS. • a. […] Liver was representative of all normal tissues analysed. (FIG. 5) • d. […] Levels of VDA2 in tumour were 10 times higher than that detected in normal tissues following administration of prodrug-2 (FIG. 6) • g. […]

A short description of series [2]: Ex vivo stability in normal mouse liver homogenate (LC/MS/MS). The series is classed as in vitro ADME.
Text: as §1, §2

Series [3] concerns HT1080 xenograft tumour homogenate. Nature of the series: Ex vivo metabolism in experimental human tumour model homogenate (HT1080 xenograft). It counts as in vitro ADME.
Text: as §1, §2
For orientation: A xenograft is tissue or cells of one species grown in another, often human tumour cells in immunodeficient mice.

Series [4] in a line: Levels of prodrug and VDA2 in plasma, tissues and tumour after intraperitoneal dosing of mice bearing subcutaneous HT1080 tumour. It counts as in vivo. Particulars: HT1080 tumour bearing mice; for prodrug tissue distribution: all tissues analysed.
Text: as §1
[drawing 11] • d) Compound 1 was modified in order to change the MMP-targeting of the compound from being pan-MMP to MT-MMP selective (Prodrug-2) • a. Arginine was incorporated in place of the Glutamic acid at the P4 position • b. […] Prodrug-2 cleavage and metabolism were detected using LC/MS/MS. • a. […] Prodrug-2 is not cleaved by recombinant MMP-9, in contrast to prodrug-1 • d. […] Plasma, tissues and tumours were collected at regular intervals post-dosing. Levels of prodrug-2 and VDA2 were assessed by LC/MS/MS. • a. […] Liver was representative of all normal tissues analysed. (FIG. 5) • d. VDA2 was undetectable in plasma following administration of prodrug-2 (FIG. 6) • e. […] Levels of VDA2 in tumour were 10 times higher than that detected in normal tissues following administration of prodrug-2 (FIG. 6) • g. High levels of prodrug-2 and VDA2 were still detectable in tumour 48 hours post administration.

Structures are written as SMILES. Where a SMILES comes first, the peptide text is derived from it. [ ]: non-standard residue; d: D form. The star is where a group is joined. NH(Colchicin-10-yl) = COc1cc2c(c(OC)c1OC)-c1ccc(N*)c(=O)cc1[C@@H](NC(C)=O)CC2; FITC = O=C1OC2(c3ccc(O)cc3Oc3cc(O)ccc32)c2ccc(NC(=S)*)cc21; hPhe = N[C@@H](CCc1ccccc1)C(=O)O; Cit = NC(=O)NCCC[C@H](N)C(=O)O; βAla = NCCC(=O)O

In the case of `COc1cc2c(c(OC)c1OC)-c1ccc(NC(=O)[C@H](Cc3ccc(O)cc3)NC(=O)[C@H](CC(C)C)NC(=O)[C@H](Cc3ccc(O)cc3)NC(=O)[C@H](CCc3ccccc3)NC(=O)CNC(=O)[C@H](CCCNC(N)=O)NC(=O)[C@@H]3CCCN3C(=O)[C@H](CCC(=O)O)NC(=O)CCNC(=S)Nc3ccc4c(c3)C(=O)OC43c4ccc(O)cc4Oc4cc(O)ccc43)c(=O)cc1[C@@H](NC(C)=O)CC2` [Prodrug-1] ({FITC-βAla}-EP[Cit]G[hPhe]YLY-{NH(Colchicin-10-yl)}), in series [1], the stability in plasma result is on record as “stable”. In addition, the “stability in liver homogenate” value in series [2] is given as “stable”. Moreover, the “metabolism in tumour homogenate” value in series [3] (HT1080 xenograft homogenate (expresses majority of MMPs)) is listed as “metabolised”. Besides, in series [4], the “VDA2 levels in normal tissues following prodrug administration” value was “detectable at low levels”; the “VDA2 levels in tumour following prodrug administration” value is recorded as “high levels”; the “prodrug levels in the tumour compared with other tissues” value was “Highest”; the prodrug tissue distribution result is “accumulated and was detected in all tissues analysed”. In series [4] (24 hours), the “VDA2 level in normal tissues after 24 hours post-dosing with prodrug” value is listed as “undetectable”, the “VDA2 level in tumour after 24 hours post-dosing with prodrug” value was “still detectable at high levels” and the “prodrug level after 24 hours post-dosing” value is listed as “not detectable”.
Take `COc1cc2c(c(OC)c1OC)-c1ccc(NC(=O)[C@H](Cc3ccc(O)cc3)NC(=O)[C@H](CC(C)C)NC(=O)[C@H](Cc3ccc(O)cc3)NC(=O)[C@H](CCc3ccccc3)NC(=O)CNC(=O)[C@H](CCCNC(N)=O)NC(=O)[C@H](CO)NC(=O)[C@H](CCCNC(=N)N)NC(=O)CCNC(=S)Nc3ccc4c(c3)C(=O)OC43c4ccc(O)cc4Oc4cc(O)ccc43)c(=O)cc1[C@@H](NC(C)=O)CC2` [Prodrug-2] ({FITC-βAla}-RS[Cit]G[hPhe]YLY-{NH(Colchicin-10-yl)}): the stability in plasma entry in series [1] was “remained intact”. The “stability in liver homogenate” value in series [2] is recorded as “remained stable”. Also, the “metabolism in tumour homogenate expressing high MT-MMP levels” value in series [3] (HT1080 homogenate, relative to homogenate expressing low MT-MMP levels (MCF7)) was “metabolised rapidly”. Also, in series [4], the “VDA2 level in plasma following prodrug administration” value is “undetectable”, the “VDA2 levels in tumour following prodrug administration” value is “High concentrations”, the “levels of VDA2 in tumour relative to normal tissues following prodrug administration” value is reported as 10 times and the “prodrug levels in the tumour compared with other tissues” value is “Highest”. In series [4], the prodrug tissue distribution result was “accumulated and was detected in all tissues analysed”. Besides, in series [4] (48 hours), the “VDA2 level in tumour 48 hours post prodrug administration” value is reported as “High levels” and the “prodrug level in tumour 48 hours post administration” value was “High levels”.

The record behind these values is patent publication US10556014B2, “Compounds containing a vascular disrupting agent” (Incanthera Ltd, priority 2007, dated 2020).
